In US12473352 (SUN YAT SEN UNIVERSITY, dated 2025):

T1: human IFP35 protein (human, UniProt P80217 1-286, limits assumed)
T1 construct: also called interferon-induced protein 35; IFI35
T1 chain: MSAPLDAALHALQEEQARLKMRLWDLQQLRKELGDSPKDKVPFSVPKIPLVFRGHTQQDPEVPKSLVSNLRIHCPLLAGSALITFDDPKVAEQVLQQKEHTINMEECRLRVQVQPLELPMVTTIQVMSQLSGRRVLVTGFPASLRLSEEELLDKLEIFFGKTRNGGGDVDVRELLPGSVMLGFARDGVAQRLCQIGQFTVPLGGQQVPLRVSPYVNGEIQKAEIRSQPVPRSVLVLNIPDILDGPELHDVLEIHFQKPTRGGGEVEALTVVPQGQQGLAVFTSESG

B1: IFP35 NID (other)
chain: IQVMSQLSGRRVLVTGFPASLRLSEEELLDKLEIFFGKTRNGGGDVDVRELLPGSVMLGFARDGVAQRLCQIGQFTVPLGGQQVPLRVSPYVNGEIQ
notes: also called NID domain of IFP35 (a fragment consisting of amino acids at positions 124-220); antigen IFP35 NID

Tests used:
[1] = target: the molecule itself; experiment: crystal structure of IFP35 NID alone
human IFP35 protein [2] = target: T1, human IFP35 protein; experiment: ELISA (OD450) on human IFP35 protein
IFP35 NID = target: B1; experiment: method not stated
human IFP35 protein [3] = target: T1, human IFP35 protein; experiment: affinity kinetics (fortebio), antibody loaded
human IFP35 protein [4] = target: T1, human IFP35 protein; experiment: ELISA (OD450) on antigen IFP35
human IFP35 protein [5] = target: T1, human IFP35 protein; experiment: affinity kinetics (fortebio); upper end given to the clone said to show the best improvement

Binder	binding result [1]	EC50 (read off the curve) (human IFP35 protein [2]) [µg/mL]	Kd (IFP35 NID) [nM]	Kd (human IFP35 protein [3]) [nM]	koff (human IFP35 protein [3]) [s⁻¹]	kon (human IFP35 protein [3]) [M⁻¹ s⁻¹]	EC50 (read off the curve) (human IFP35 protein [4]) [µg/mL]	fold increase in affinity against AE001-H3+L3 (human IFP35 protein [5]) [fold]
B1	binds	–	–	–	–	–	–	–
35NIDmAb (antibody, V domains shown, Mouse monoclonal antibody from hybridoma ascites; also called AE001-VH+VL; AE001-VH+VL (35NIDmAb)) VH: VQLVESGPELKKPGETVKISCKASGYTFTNYGMNWVKQAPGKGLKWMGWINTYTGEPTFADDFKGRFAFSLETSASTAYLQINNLKNEDTATYFCARYGYSWAMDYWGQGTSVTVSS VL: DIVMTQSPAIMSASPGEKVTMTCSASSSVSYMHWYQQKSGTSPKRWIYDTSKLASGVPARFSGSGSGTSYSLTISSMEAEDAATYYCQQWSSNPPITFGAGTKLEIK	–	~0.06	28	–	–	–	–	–
AE001-H3+L3 (antibody, V domains shown, The same doubt about the 'constant region' label applies as for AE001-H1+L1; also called AE001H3 + AE001L3; humanized antibody) VH: QVQLVQSGAEVKKPGASVKVSCKASGYTFTNYGMNWVRQAPGQGLEWMGWINTYTGEPTVAQKFQGRFTFTLDTSTSTAYLELSSLRNEDTAVYFCARYGYSWAMDYWGQGTSVTVSS VL: DIQMTQSPSSLSASVGDRVTITCQASSSVSYMHWYQQKPGKAPKRLIYDTSKLASGVPSRFSGSGSGTDYTLTISSLQPEDIATYYCQQWSSNPPITFGAGTKLEIK	–	~0.2	–	13.9	0.00201	145000	–	–
AE001-H1+L1 (antibody, V domains shown, also called AE001H1 + AE001L1; humanized antibody) VH: QVQLVESGAEVKKPGASVKISCKASGYTFTNYGMNWVKQAPGQGLKWMGWINTYTGEPTFAQDFQGRFTFTLDTSASTAYLQISSLRNEDTAVYFCARYGYSWAMDYWGQGTSVTVSS VL: DIQMTQSPSSMSASVGDRVTMTCQASSSVSYMHWYQQKPGKSPKRWIYDTSKLASGVPSRFSGSGSGTDYTLTISSMQPEDIATYYCQQWSSNPPITFGAGTKLEIK	–	~0.05	–	–	–	–	–	–
AE001-6 (antibody, human IgG1, V domains shown, Human IgG1; CDR mutant of AE001-H3+L3; also called AE001-6Hc + Lc; AE001-6HC + LC) VH: QVQLVQSGAEVKKPGASVKVSCKASGYTFTNYGMNWVRQAPGQGLEWMGWINTYTGEPTVAQKFQGRFTFTLDTSTSTAYLELSSLRNEDTAVYFCARYGYSWAMDYWGQGTSVTVSS VL: DIQMTQSPSSLSASVGDRVTITCQASSSVSYMHWYQQKPGKAPKRLIYDTSKLASGVPSRFSGSGSGTDYTLTISSLQPEDIATYYCQQWSPYPPITFGAGTKLEIK	–	–	–	3.35	0.000508	152000	~0.1	–
AE001-H2+L2 (antibody, V domains shown, Humanized form of 35NIDmAb with the same CDRs; The same doubt about the 'constant region' label applies as for AE001-H1+L1; also called AE001H2 + AE001L2; humanized antibody) VH: QVQLVQSGAEVKKPGASVKISCKASGYTFTNYGMNWVRQAPGQGLEWMGWINTYTGEPTFAQKFQGRFTFTLDTSTSTAYLEISSLRNEDTAVYFCARYGYSWAMDYWGQGTSVTVSS VL: DIQMTQSPSSLSASVGDRVTMTCQASSSVSYMHWYQQKPGKAPKRWIYDTSKLASGVPSRFSGSGSGTDYTLTISSMQPEDIATYYCQQWSSNPPITFGAGTKLEIK	–	~0.08	–	–	–	–	–	–
AE001-8 (antibody, human IgG1, V domains shown, Human IgG1; CDR mutant of AE001-H3+L3; also called AE001-6Hc + 8Lc; AE001-6HC + 8LC) VH: QVQLVQSGAEVKKPGASVKVSCKASGYTFTNYGMNWVRQAPGQGLEWMGWINTYTGEPTVAQKFQGRFTFTLDTSTSTAYLELSSLRNEDTAVYFCARYGYSWAMDYWGQGTSVTVSS VL: DIQMTQSPSSLSASVGDRVTITCQASSSVSYMHWYQQKPGKAPKRLIYDTSKLASGVPSRFSGSGSGTDYTLTISSLQPEDIATYYCQQWSPLPPITFGAGTKLEIK	–	–	–	2.99	0.00044	147000	~0.2	2.5 to 4.6
AE001-7 (antibody, human IgG1, V domains shown, Human IgG1; CDR mutant of AE001-H3+L3; also called AE001-6Hc + 7Lc; AE001-6HC + 7LC) VH: QVQLVQSGAEVKKPGASVKVSCKASGYTFTNYGMNWVRQAPGQGLEWMGWINTYTGEPTVAQKFQGRFTFTLDTSTSTAYLELSSLRNEDTAVYFCARYGYSWAMDYWGQGTSVTVSS VL: DIQMTQSPSSLSASVGDRVTITCQASSSVSYMHWYQQKPGKAPKRLIYDTSKLASGVPSRFSGSGSGTDYTLTISSLQPEDIATYYCQQWSSNSWSTFGAGTKLEIK	–	–	–	3.46	0.000524	151000	~0.2	–
AE001-9 (antibody, human IgG1, V domains shown, Human IgG1; CDR mutant of AE001-H3+L3; also called AE001-6Hc + 9Lc; AE001-6HC + 9LC) VH: QVQLVQSGAEVKKPGASVKVSCKASGYTFTNYGMNWVRQAPGQGLEWMGWINTYTGEPTVAQKFQGRFTFTLDTSTSTAYLELSSLRNEDTAVYFCARYGYSWAMDYWGQGTSVTVSS VL: DIQMTQSPSSLSASVGDRVTITCQASSSVSYMHWYQQKPGKAPKRLIYDTSKLASGVPSRFSGSGSGTDYTLTISSLQPEDIATYYCQQWSPRPPITFGAGTKLEIK	–	–	–	3.04	0.000454	149000	~0.2	–
